Data on four substances can be found in patent EP1141005B1.

Holding throughout (assay): cell-based or functional assay
Test [1] has as its target GAL4/HIF 1-813 (human).
For test [2], the target named is GAL4/HIF 526-826 (human).
Test [3] has as its target GFP-HIF-1α (in-frame fusion of green fluorescent protein with full-length HIF-1α) (Aequeora victoria; human) [GFP: P42212].
Test [4] deals with GAL4/HIF 71-826 (human).
The target of test [5] is GAL4/HIF 776-826 (human).
In test [6] the target is HIF-1α (wild-type human HIF-1α expressed from pCMV4/HIF-1α) (human) (UniProt Q16665).
Chain of HIF-1α (wild-type human HIF-1α expressed from pCMV4/HIF-1α) (human) (Q16665 whole entry, the tested form may be a part): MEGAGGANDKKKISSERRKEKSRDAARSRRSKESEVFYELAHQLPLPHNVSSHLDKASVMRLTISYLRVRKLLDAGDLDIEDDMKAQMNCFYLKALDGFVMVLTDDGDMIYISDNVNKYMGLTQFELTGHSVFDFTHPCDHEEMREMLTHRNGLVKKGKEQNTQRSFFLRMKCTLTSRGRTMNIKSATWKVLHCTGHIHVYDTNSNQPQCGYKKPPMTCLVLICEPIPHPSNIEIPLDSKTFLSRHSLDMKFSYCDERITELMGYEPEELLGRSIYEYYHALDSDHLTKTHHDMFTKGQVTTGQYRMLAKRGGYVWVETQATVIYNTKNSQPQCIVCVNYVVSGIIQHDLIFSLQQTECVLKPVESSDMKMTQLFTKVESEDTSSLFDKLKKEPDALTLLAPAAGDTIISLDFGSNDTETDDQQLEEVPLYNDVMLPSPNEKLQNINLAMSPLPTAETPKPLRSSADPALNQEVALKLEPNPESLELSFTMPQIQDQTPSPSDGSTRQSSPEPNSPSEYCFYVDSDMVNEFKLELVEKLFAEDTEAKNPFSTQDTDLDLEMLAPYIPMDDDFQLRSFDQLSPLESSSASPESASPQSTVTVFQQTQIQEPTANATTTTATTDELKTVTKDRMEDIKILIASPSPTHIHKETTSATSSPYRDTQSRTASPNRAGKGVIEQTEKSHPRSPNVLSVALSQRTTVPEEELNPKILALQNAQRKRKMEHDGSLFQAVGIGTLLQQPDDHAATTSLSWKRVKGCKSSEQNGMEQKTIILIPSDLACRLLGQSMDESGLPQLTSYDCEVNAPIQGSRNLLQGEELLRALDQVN
Test [7] concerns the target GAL4/HIF 531-584 (human).
The target of test [8] is GAL4/Arnt 128-774 (UniProt P04386).
Test [9] has as its target GAL4/Arnt 128-603 (UniProt P04386).

Turning to “CBP (CREB binding protein, full-length mouse CBP expressed from pRc/RSV-mCBP-HA) (from UniProt P45481 1-2441)”, the GAL4-responsive reporter gene activity, COS7, hypoxia, overexpression of CBP in test [1] is 14 fold. The GAL4-responsive reporter gene activity, COS7, transient expression of CBP in test [2] fell in the range of 7 to 9 fold. Moreover, in [3], the HRE-dependent reporter gene activity, COS7, hypoxia with CBP over the levels at normoxia stood at 15 fold and the HRE-dependent reporter gene activity, COS7, hypoxia, enhancement by coexpressed CBP amounted to 3 fold. In addition, the luciferase activity, GAL4-responsive reporter, COS7, hypoxia with CBP against hypoxia without exogenous coactivators in test [4] is 30 fold. The GAL4-responsive reporter gene activity, COS7, in the presence of CBP in test [5] stood at 29 fold. The substance further returned a pT81/HRE-luc reporter gene activity, COS7 coexpressing HIF-1α and Arnt, hypoxia, against hypoxia without exogenous coactivator in test [6] of 2 to 3 fold. The GAL4-responsive reporter gene activity, COS7, hypoxic cells, in the presence of CBP in test [7] was found to be 11 fold.

With “HIF-1α (wild-type human HIF-1α expressed from pCMV4/HIF-1α) (from UniProt Q16665 1-826)”, the GAL4-responsive reporter gene activity, COS7, normoxia, against the GAL4 fusion protein alone in [8] is 4 fold. The GAL4-responsive reporter gene activity, COS7, normoxia in test [9] came to 5 fold.

Take “Ref-1 (nuclear redox regulator Ref-1 expressed from pCMV5/Ref-1) (from UniProt P27695 1-318) (enzyme)”: the hypoxia-dependent activation of a GAL4-responsive reporter, COS7, Ref-1 coexpressed in the presence of CBP and SRC-1 in test [5] was found to be 53 fold; in [7] it was 12 fold.

Regarding “TIF2 (transcriptional coactivator TIF2) (from UniProt Q15596 1-1464)”, in test [6], the pT81/HRE-luc reporter gene activity, COS7, hypoxia over the levels at normoxia was 12 fold.
